Consider two molecules from PMC9751120.

Assay [1] addresses Alexa 488 labeled DARPin A5. In words: fluorescence polarisation; fluorescence anisotropy; 500 nM Alexa 488 labeled DARPin constant, p63 isoform 0-10 µM; 50 mM Tris pH 8, 150 mM NaCl, 0.5 mM TCEP, 0.1 % Tween-20; the sheet says 20 °C, the methods 16 °C.
For assay [2], the target named is Alexa 488 labeled DARPin C14. The description is as above.
The target in assay [3] is Alexa 488 labeled DARPin 8F1. The description is as above.
The target of assay [4] is DARPin A5. In words: ITC; target proteins titrated to constant concentrations of DARPin; 50 mM HEPES, pH 7.4, 150 mM NaCl, 0.5 mM TCEP; AB hetero-association model (SEDPHAT); temperatures not shown.
Assay [5] addresses DARPin A5. Briefly: ITC; target protein titrated into a constant concentration of DARPin, 25 injections of 10 µl; 50 mM HEPES pH 7.4, 150 mM NaCl, 0.5 mM TCEP; 25 °C; AB hetero-association model (SEDPHAT).

B1: ΔNp63α (natural protein)
chain: MLYLENNAQTQFSEPQYTNLGLLNSMDQQIQNGSSSTSPYNTDHAQNSVTAPSPYAQPSSTFDALSPSPAIPSNTDYPGPHSFDVSFQQSSTAKSATWTYSTELKKLYCQIAKTCPIQIKVMTPPPQGAVIRAMPVYKKAEHVTEVVKRCPNHELSREFNEGQIAPPSHLIRVEGNSHAQYVEDPITGRQSVLVPYEPPQVGTEFTTVLYNFMCNSSCVGGMNRRPILIIVTLETRDGQVLGRRCFEARICACPGRDRKADEDSIRKQQVSDSTKNGDGTKRPFRQNTHGIQMTSIKKRRSPDDELLYLPVRGRETYEMLLKIKESLELMQYLPQHTIETYRQQQQQQHQHLLQKQTSIQSPSSYGNSSPPLNKMNSMNKLPSVSQLINPQQRNALTPTTIPDGMGANIPMMGTHMPMAGDMNGLSPTQALPPPLSMPSTSHCTPPPPYPTDCSIVSFLARLGCSSCLDYFTTQGLTTIYQIEHYSMDDLASLKIPEQFRHAIWKGILDHRQLHEFSSPSHLLRTPSSASTVSVGSSETRGERVIDAVRFTLRQTISFPPRDEWNDFNFDMDARRNKQQRIKEEGE
Turning to B1, the Kd in assay [1] was found to be 67.9 nM; in assay [2], 202 nM; in assay [3] it was 95.6 nM.

B2: p63 Sterile α-motif (SAM) domain (domain or fragment)
chain: PPYPTDCSIVSFLARLGCSSCLDYFTTQGLTTIYQIEHYSMDDLASLKIPEQFRHAIWKGILDHRQL
B2 showed a Kd in the assay with DARPin A5 [4] of 16 nM. The Ka with DARPin A5 [5] amounted to 6.18e+07 M⁻¹.
